In article PMC4157841, “Ethylmalonic Encephalopathy ETHE1 R163W/R163Q Mutations Alter Protein Stability and Redox Properties of the Iron Centre” (PLoS ONE, 2014):

B1: Human ETHE1 wild type (enzyme, UniProt O95571 8-254, looked up)
chain: VARRQLSQRGGSGAPILLRQMFEPVSCTFTYLLGDRESREAVLIDPVLETAPRDAQLIKELGLRLLYAVNTHCHADHITGSGLLRSLLPGCQSVISRLSGAQADLHIEDGDSIRFGRFALETRASPGHTPGCVTFVLNDHSMAFTGDALLIRGCGRTDFQQGCAKTLYHSVHEKIFTLPGDCLIYPAHDYHGFTVSTVEEERTLNPRLTLSCEEFVKIMGNLNLPKPQQIDFAVPANMRCGVQTPTA
notes: Holds about 1 mol iron per mol protein; also called ETHE1-WT; wild-type ETHE1; source: E. coli Bl21 DE3, purified (His-trap HP, Superdex 75 size exclusion)
B2: Human ETHE1-p.Arg163Trp (enzyme, UniProt O95571 8-254, looked up)
chain: VARRQLSQRGGSGAPILLRQMFEPVSCTFTYLLGDRESREAVLIDPVLETAPRDAQLIKELGLRLLYAVNTHCHADHITGSGLLRSLLPGCQSVISRLSGAQADLHIEDGDSIRFGRFALETRASPGHTPGCVTFVLNDHSMAFTGDALLIRGCGWTDFQQGCAKTLYHSVHEKIFTLPGDCLIYPAHDYHGFTVSTVEEERTLNPRLTLSCEEFVKIMGNLNLPKPQQIDFAVPANMRCGVQTPTA
notes: also called ETHE1 R163W; source: E. coli Bl21 DE3, purified (His-trap HP, Superdex 75 size exclusion)
B3: Human ETHE1-p.Arg163Gln (enzyme, UniProt O95571 8-254, looked up)
chain: VARRQLSQRGGSGAPILLRQMFEPVSCTFTYLLGDRESREAVLIDPVLETAPRDAQLIKELGLRLLYAVNTHCHADHITGSGLLRSLLPGCQSVISRLSGAQADLHIEDGDSIRFGRFALETRASPGHTPGCVTFVLNDHSMAFTGDALLIRGCGQTDFQQGCAKTLYHSVHEKIFTLPGDCLIYPAHDYHGFTVSTVEEERTLNPRLTLSCEEFVKIMGNLNLPKPQQIDFAVPANMRCGVQTPTA
notes: also called ETHE1 R163Q; source: E. coli Bl21 DE3, purified (His-trap HP, Superdex 75 size exclusion)

Target: the molecule itself
Assay: SEC; Superdex 75 in 50 mM Tris-HCl pH 7.5, 150 mM NaCl, column calibrated with standard proteins; native molecular mass determined; data not shown

Stoichiometry N, 2:
B1, B2, B3
